Values of other authors, collected in publication PMC9240770.

Target: TREM-1 (Mus musculus) (UniProt Q9JKE2)
Test: SPR

Chain of UniProt Q9JKE2 (Q9JKE2 21-230): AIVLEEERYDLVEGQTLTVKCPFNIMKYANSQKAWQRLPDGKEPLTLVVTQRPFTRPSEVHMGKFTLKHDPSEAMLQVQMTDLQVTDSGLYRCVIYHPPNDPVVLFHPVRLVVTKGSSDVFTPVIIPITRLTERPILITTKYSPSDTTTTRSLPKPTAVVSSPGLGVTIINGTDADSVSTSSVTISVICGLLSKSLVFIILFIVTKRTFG

Row | Kd [µM] | Substance
1 | 0.117 | CIRP (from UniProt P60824)
2 | 35.4 | HMGB1 (from UniProt P63158)
